± gives the uncertainty stated by the source.
Assay: self-splicing fitness, log relative to wild type (ln ratio); higher = more splicing; Tetrahymena group I intron in knt gene, E. coli kanamycin selection, DiMSum; sequences stand for … in CUCUCU…GGAGGGAAAAGUUAUCAGGCAUGCACCUGGUAGCUAGUCUUUAAACCAAUAGAUUGCAUCGGUUUAAAAGGCAAGACCGUCAAAUUGCGGGAAAGGGGUCAACAGCCGUUCAGUACCAAGUCUCAGGGGAAACUUUGAGAUGGCCUUGCAAAGGGUAUGGUAAUAAGCUGACGGACAUGGUCCUAACCACGCAGCCAAGUCCUAAGUCAACAGAUCUUCUGUUGAUAUGGAUGCAGUUCACAGACUAAAUGUCGGUCGGGGAAGAUGUAUUCUUCUCAUAAGAUAUAGUCGGACCUCUCCUUAAUGGGAGCUAGCGGAUGAAGUGAUGCAACACUGGAGCCGCUGGGAACUAAUUUGUAUGCGAAAGUAUAUUGAUUAGUUUUGGAGUACUCGUGGUCG
Outline: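 Pooled colonies went to amplicon sequencing on an Illumina HiSeq 2500 after six replicate transformations. The plates were LB agar with 100 μg/mL carbenicillin, 50 μM IPTG and 0.2% rhamnose, with or without 25 μg/mL kanamycin, incubated overnight at 37°C or 30°C. The E. coli BL21(DE3) library had all eight P1ex-region intron nucleotides randomised, the intron placed in the knt kanamycin-resistance gene on pET-22b(+). DiMSum fitness is the error-weighted combination of replicate fold changes, kanamycin against none, normalised to wild type.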

| Sequence | self-splicing fitness (ln) (30 °C) | self-splicing fitness (ln) (37 °C) |
| --- | --- | --- |
| CUAUAGCAAUAUUACGGGUU | -3.13 ± 0.23 | -1.38 ± 0.19 |
| CUAUAGCAAUAUUACGGUAC | -3.68 ± 0.28 | -1.51 ± 0.25 |
| CUAUAGCAAUAUUACGGUCU | -4.51 ± 0.36 | -2.14 ± 0.29 |
| CUAUAGCAAUAUUACGUAAA | -3.63 ± 0.24 | – |
| CUAUAGCAAUAUUACGUAUG | -1.52 ± 0.085 | -0.647 ± 0.099 |
| CUAUAGCAAUAUUACGUCGA | -2.18 ± 0.22 | -2.6 ± 0.38 |
| CUAUAGCAAUAUUACGUCGU | – | -2.24 ± 0.34 |
| CUAUAGCAAUAUUACGUGGC | -2.86 ± 0.24 | -1.8 ± 0.28 |
| CUAUAGCAAUAUUACGUUGA | -3.67 ± 0.32 | -3.42 ± 0.35 |
| CUAUAGCAAUAUUACGUUGC | -2.61 ± 0.32 | -2.37 ± 0.32 |
| CUCAAGCAAUAUUACGAAAG | -2.12 ± 0.11 | -0.747 ± 0.13 |
| CUCAAGCAAUAUUACGACAA | -2.86 ± 0.23 | -1.89 ± 0.21 |
| CUCAAGCAAUAUUACGACGC | -1.75 ± 0.24 | -2.18 ± 0.42 |
| CUCAAGCAAUAUUACGACGG | -0.942 ± 0.1 | -1.05 ± 0.13 |
| CUCAAGCAAUAUUACGAUAA | -3.78 ± 0.16 | -1.93 ± 0.12 |
| CUCAAGCAAUAUUACGAUGC | -3.9 ± 0.15 | -2.95 ± 0.17 |
| CUCAAGCAAUAUUACGAUGU | -2.6 ± 0.11 | -1.21 ± 0.13 |
| CUCAAGCAAUAUUACGCAAG | – | -0.876 ± 0.27 |
| CUCAAGCAAUAUUACGCCAG | -3.03 ± 0.28 | -0.675 ± 0.29 |
| CUCAAGCAAUAUUACGCUAA | -3.13 ± 0.2 | -2.96 ± 0.22 |
| CUCAAGCAAUAUUACGCUCG | – | -0.979 ± 0.33 |
| CUCAAGCAAUAUUACGGUAU | -3.61 ± 0.17 | -2.08 ± 0.17 |
| CUCAAGCAAUAUUACGGUGC | -4.1 ± 0.31 | -3.19 ± 0.27 |
| CUCAAGCAAUAUUACGGUGU | -3.3 ± 0.12 | -1.31 ± 0.13 |
| CUCAAGCAAUAUUACGGUUA | -2.78 ± 0.2 | -2.81 ± 0.2 |
| CUCAAGCAAUAUUACGUACC | -4.45 ± 0.34 | -2.04 ± 0.23 |
| CUCAAGCAAUAUUACGUCCG | -2.08 ± 0.12 | -1.38 ± 0.13 |

| Sequence | self-splicing fitness (ln) (30 °C) | self-splicing fitness (ln) (37 °C) |
| --- | --- | --- |
| CUCAAGCAAUAUUACGUGCC | -2.96 ± 0.11 | -2.29 ± 0.17 |
| CUCAAGCAAUAUUACGUGGC | -4.37 ± 0.22 | -2.24 ± 0.14 |
| CUCAAGCAAUAUUACGUGUC | -3.37 ± 0.11 | -1.65 ± 0.1 |
| CUCAAGCAAUAUUACGUGUG | -2.73 ± 0.074 | -1.42 ± 0.072 |
| CUCAAGCAAUAUUACGUUCA | -2.07 ± 0.15 | -1.46 ± 0.14 |
| CUCAAGCAAUAUUACGUUGA | -3.13 ± 0.21 | -2.48 ± 0.2 |
| CUCCAGCAAUAUUACGACGU | -3.83 ± 0.21 | -2.01 ± 0.21 |
| CUCCAGCAAUAUUACGAUAU | -2.46 ± 0.19 | -2.95 ± 0.47 |
| CUCCAGCAAUAUUACGAUGU | -3.28 ± 0.17 | -2.9 ± 0.21 |
| CUCCAGCAAUAUUACGCAAA | -3.21 ± 0.21 | -2.68 ± 0.26 |
| CUCCAGCAAUAUUACGCAUA | – | -2.21 ± 0.29 |
| CUCCAGCAAUAUUACGCAUG | -2.12 ± 0.08 | -1.06 ± 0.074 |
| CUCCAGCAAUAUUACGCCGA | -2.27 ± 0.42 | – |
| CUCCAGCAAUAUUACGGAAA | -2.25 ± 0.13 | -1.55 ± 0.12 |
| CUCCAGCAAUAUUACGGAAC | -4.55 ± 0.46 | -2.33 ± 0.21 |
| CUCCAGCAAUAUUACGGAUG | -2.46 ± 0.13 | -1.38 ± 0.14 |
| CUCCAGCAAUAUUACGGCAG | -4.58 ± 0.21 | -1.75 ± 0.15 |
| CUCCAGCAAUAUUACGGCGC | -3.37 ± 0.18 | -2.81 ± 0.27 |
| CUCCAGCAAUAUUACGGGAA | -1.92 ± 0.086 | -0.479 ± 0.093 |
| CUCCAGCAAUAUUACGGGCA | – | -2.52 ± 0.27 |
| CUCCAGCAAUAUUACGGUAC | -2.28 ± 0.12 | -1.86 ± 0.16 |
| CUCCAGCAAUAUUACGGUGU | -4.11 ± 0.15 | -2.28 ± 0.13 |
| CUCCAGCAAUAUUACGUGAG | -3.61 ± 0.15 | -2.62 ± 0.18 |
| CUCCAGCAAUAUUACGUGGU | -3.42 ± 0.12 | -3.19 ± 0.15 |
| CUCGAGCAAUAUUACGAAAC | -3.52 ± 0.33 | -1.99 ± 0.33 |
| CUCGAGCAAUAUUACGAAAG | -2.85 ± 0.14 | -1.58 ± 0.15 |
| CUCGAGCAAUAUUACGACAG | -1.76 ± 0.15 | -1.42 ± 0.21 |

| Sequence | self-splicing fitness (ln) (30 °C) | self-splicing fitness (ln) (37 °C) |
| --- | --- | --- |
| CUCGAGCAAUAUUACGACUC | -4.16 ± 0.22 | -2.61 ± 0.24 |
| CUCGAGCAAUAUUACGAGGG | -3.45 ± 0.28 | -1.83 ± 0.35 |
| CUCGAGCAAUAUUACGAUAC | – | -2.64 ± 0.36 |
| CUCGAGCAAUAUUACGAUGC | -4.39 ± 0.46 | -3 ± 0.47 |
| CUCGAGCAAUAUUACGAUUC | -3.29 ± 0.47 | – |
| CUCGAGCAAUAUUACGCAAU | -3.57 ± 0.2 | – |
| CUCGAGCAAUAUUACGCAUG | -3.27 ± 0.2 | -3.58 ± 0.42 |
| CUCGAGCAAUAUUACGCCAC | -2.89 ± 0.43 | -1.24 ± 0.43 |
| CUCGAGCAAUAUUACGCCCG | – | -2.74 ± 0.43 |
| CUCGAGCAAUAUUACGCGAC | – | -0.0316 ± 0.34 |
| CUCGAGCAAUAUUACGGAGG | -2.97 ± 0.1 | -1.46 ± 0.097 |
| CUCGAGCAAUAUUACGGAUG | -2.21 ± 0.13 | -1.46 ± 0.17 |
| CUCGAGCAAUAUUACGGGCG | -2.65 ± 0.17 | -2.1 ± 0.25 |
| CUCGAGCAAUAUUACGGGGG | -4.18 ± 0.42 | – |
| CUCGAGCAAUAUUACGGUCC | -3 ± 0.36 | -2.33 ± 0.45 |
| CUCGAGCAAUAUUACGGUGC | -2.95 ± 0.25 | -2.88 ± 0.31 |
| CUCGAGCAAUAUUACGGUGG | -2.25 ± 0.13 | -1.75 ± 0.17 |
| CUCGAGCAAUAUUACGGUGU | -2.83 ± 0.33 | -2.7 ± 0.31 |
| CUCGAGCAAUAUUACGUCCA | -1.95 ± 0.25 | -3.15 ± 0.47 |
| CUCGAGCAAUAUUACGUUGC | -3.84 ± 0.42 | -3.45 ± 0.37 |
| CUCGAGCAAUAUUACGUUUU | -3.2 ± 0.13 | -2.1 ± 0.17 |
| CUCUAGCAAUAUUACGACGU | – | -3.03 ± 0.22 |
| CUCUAGCAAUAUUACGACUG | -1.68 ± 0.15 | -0.621 ± 0.18 |
| CUCUAGCAAUAUUACGAUCC | -2.43 ± 0.31 | -2.11 ± 0.3 |
| CUCUAGCAAUAUUACGCAGU | -4.21 ± 0.24 | -4.07 ± 0.23 |
| CUCUAGCAAUAUUACGCAUG | -4.85 ± 0.41 | -3.07 ± 0.3 |

— the supplement of paper PMC7877785
